The data set deals with the molecule itself. Nature of the data set: reverse-phase HPLC with TOF mass detection; peptide 7 of an earlier (old) synthetic batch in PBS; Agilent HPLC Infinity II 1290 with TOF 6230, 5-65% acetonitrile/water with 0.1% TFA, 40 C.

B1: peptide 7 (CQGRVEVLYRGSWGTV), SRCR-domain-derived peptide of DMBT1 (peptide)
peptide: CQGRVEVLYRGSWGTV
notes: Free N-terminal cysteine; earlier synthetic batches formed disulfide-linked homodimers in PBS; also called Pep7
On to B1, for which the binding result is reported as “binds”.

Values taken from publication doi:10.1101/2025.03.06.641801, “DMBT1 promotes SARS-CoV-2 infection and its SRCR-derived peptide inhibits SARS-CoV-2 infection” (bioRxiv, 2025).
